Reference: patent US6818617
pIC50: −log10 of the molar value. Like-named read-outs stand apart in the source and are kept apart here.

Columns and labels:
integrin αvβ3 (human) = integrin αvβ3 (human) (UniProt P06756); assay: inhibition of cell adhesion: VNRC3 (CHO αvβ3+) cells to immobilized vitronectin
[1] = biological target: integrin α4β1 on Jurkat cells (UniProt P13612)
integrin α4β7 [2] = biological target: integrin α4β7 (UniProt P13612)
[3] = biological target: integrin α6β1 on K562 cells transfected with α6 (UniProt P23229); assay: inhibition of cell adhesion: K562 (α6+) cells to laminin
integrin α6β1 on K562 cells transfected with α6, sequence (P23229 24-1130, chain 1 of 2): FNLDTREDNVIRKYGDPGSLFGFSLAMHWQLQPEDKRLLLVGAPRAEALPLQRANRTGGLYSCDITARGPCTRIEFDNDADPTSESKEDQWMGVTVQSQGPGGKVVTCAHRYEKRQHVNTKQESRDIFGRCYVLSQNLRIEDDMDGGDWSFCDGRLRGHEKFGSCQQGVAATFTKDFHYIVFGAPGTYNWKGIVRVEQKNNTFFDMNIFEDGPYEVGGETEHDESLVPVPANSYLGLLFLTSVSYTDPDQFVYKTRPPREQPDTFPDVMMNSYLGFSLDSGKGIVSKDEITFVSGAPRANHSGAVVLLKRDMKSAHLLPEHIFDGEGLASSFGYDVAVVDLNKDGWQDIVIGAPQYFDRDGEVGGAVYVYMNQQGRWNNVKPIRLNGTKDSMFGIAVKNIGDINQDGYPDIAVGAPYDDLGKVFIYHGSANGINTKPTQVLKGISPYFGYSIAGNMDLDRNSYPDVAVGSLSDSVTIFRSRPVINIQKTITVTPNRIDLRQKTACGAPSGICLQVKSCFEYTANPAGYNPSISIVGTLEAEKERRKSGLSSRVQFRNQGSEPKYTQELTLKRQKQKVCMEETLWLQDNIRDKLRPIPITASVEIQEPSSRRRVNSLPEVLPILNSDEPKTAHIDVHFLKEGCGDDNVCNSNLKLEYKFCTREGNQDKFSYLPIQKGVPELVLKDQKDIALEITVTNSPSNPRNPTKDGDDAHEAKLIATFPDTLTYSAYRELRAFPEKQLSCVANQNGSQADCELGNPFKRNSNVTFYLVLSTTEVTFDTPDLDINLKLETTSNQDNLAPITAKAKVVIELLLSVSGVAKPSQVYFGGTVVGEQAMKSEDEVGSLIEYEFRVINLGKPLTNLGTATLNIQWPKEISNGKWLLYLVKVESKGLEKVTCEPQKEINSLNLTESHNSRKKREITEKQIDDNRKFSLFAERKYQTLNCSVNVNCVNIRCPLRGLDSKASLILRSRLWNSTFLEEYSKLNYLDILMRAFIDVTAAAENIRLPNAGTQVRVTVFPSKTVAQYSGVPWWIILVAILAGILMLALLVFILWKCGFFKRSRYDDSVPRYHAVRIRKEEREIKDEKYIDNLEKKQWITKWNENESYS
integrin α6β1 on K562 cells transfected with α6, sequence (P05556 21-798, chain 2 of 2, further chain): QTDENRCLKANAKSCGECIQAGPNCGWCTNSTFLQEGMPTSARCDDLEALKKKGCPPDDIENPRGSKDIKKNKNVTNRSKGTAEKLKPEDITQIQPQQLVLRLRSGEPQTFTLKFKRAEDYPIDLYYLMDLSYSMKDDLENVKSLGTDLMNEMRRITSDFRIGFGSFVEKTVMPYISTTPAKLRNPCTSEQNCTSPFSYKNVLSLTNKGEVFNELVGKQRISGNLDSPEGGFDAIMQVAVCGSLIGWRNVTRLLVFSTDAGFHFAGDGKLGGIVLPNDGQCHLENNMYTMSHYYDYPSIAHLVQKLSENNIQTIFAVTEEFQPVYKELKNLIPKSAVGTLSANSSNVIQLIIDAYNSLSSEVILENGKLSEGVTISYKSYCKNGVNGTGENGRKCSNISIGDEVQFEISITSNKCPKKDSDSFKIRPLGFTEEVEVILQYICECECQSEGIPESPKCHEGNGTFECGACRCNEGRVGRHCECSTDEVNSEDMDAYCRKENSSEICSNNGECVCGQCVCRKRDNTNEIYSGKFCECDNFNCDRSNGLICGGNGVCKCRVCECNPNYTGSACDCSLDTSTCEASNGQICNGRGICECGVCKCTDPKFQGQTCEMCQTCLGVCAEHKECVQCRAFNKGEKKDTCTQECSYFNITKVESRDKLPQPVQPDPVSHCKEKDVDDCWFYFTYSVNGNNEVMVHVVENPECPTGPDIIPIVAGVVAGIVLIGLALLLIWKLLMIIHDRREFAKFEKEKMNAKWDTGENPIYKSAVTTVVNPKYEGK

[4] = biological target: integrin α4β1 on Jurkat cells (UniProt P13612); assay: inhibition of cell adhesion: Jurkat cells to CS-1
integrin αIIbβ3 (human) [5] = biological target: integrin αIIbβ3 (human) (UniProt P08514); assay: cell-based or functional assay
integrin α4β7 [6] = biological target: integrin α4β7 (UniProt P13612); assay: inhibition of cell adhesion: RPMI 8866 cells to MadCAM-1
[7] = biological target: integrin α4β1 on Jurkat cells (UniProt P13612); assay: inhibition of cell adhesion: Jurkat cells to immobilized VCAM-1
integrin αIIbβ3 (human) [8] = biological target: integrin αIIbβ3 (human) (UniProt P08514); assay: inhibition of cell adhesion: A5 (CHO αIIbβ3+) cells to immobilized fibrinogen

integrin αvβ3 (human), sequence (P06756 31-1048, chain 1 of 2): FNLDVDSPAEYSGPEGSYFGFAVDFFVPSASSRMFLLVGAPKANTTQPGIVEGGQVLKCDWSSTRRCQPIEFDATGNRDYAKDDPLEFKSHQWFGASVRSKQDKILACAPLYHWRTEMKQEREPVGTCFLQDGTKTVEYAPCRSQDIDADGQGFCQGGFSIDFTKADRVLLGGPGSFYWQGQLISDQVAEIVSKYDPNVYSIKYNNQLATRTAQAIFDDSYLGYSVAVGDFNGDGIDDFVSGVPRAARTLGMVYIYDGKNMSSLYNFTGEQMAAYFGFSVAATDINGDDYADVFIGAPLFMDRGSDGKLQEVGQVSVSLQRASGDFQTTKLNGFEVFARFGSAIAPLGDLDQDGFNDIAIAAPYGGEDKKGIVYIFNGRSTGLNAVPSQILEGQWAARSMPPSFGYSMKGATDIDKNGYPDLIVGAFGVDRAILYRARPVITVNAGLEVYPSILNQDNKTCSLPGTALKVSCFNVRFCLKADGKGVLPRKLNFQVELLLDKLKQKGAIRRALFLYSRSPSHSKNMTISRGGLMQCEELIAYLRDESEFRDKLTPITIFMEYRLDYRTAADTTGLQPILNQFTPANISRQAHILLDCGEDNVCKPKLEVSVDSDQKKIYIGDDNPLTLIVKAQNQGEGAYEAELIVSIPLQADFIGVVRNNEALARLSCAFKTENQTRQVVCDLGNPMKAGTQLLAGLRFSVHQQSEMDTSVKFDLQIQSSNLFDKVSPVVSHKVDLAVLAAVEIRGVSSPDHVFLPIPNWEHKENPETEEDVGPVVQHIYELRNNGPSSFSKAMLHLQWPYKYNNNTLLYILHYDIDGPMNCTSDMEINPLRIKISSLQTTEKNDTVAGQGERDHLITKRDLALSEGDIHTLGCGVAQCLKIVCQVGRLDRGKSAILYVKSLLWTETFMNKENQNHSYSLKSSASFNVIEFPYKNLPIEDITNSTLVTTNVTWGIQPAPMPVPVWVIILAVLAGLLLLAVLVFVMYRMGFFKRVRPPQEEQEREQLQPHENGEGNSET
integrin αvβ3 (human), sequence (P05106 27-788, chain 2 of 2, further chain): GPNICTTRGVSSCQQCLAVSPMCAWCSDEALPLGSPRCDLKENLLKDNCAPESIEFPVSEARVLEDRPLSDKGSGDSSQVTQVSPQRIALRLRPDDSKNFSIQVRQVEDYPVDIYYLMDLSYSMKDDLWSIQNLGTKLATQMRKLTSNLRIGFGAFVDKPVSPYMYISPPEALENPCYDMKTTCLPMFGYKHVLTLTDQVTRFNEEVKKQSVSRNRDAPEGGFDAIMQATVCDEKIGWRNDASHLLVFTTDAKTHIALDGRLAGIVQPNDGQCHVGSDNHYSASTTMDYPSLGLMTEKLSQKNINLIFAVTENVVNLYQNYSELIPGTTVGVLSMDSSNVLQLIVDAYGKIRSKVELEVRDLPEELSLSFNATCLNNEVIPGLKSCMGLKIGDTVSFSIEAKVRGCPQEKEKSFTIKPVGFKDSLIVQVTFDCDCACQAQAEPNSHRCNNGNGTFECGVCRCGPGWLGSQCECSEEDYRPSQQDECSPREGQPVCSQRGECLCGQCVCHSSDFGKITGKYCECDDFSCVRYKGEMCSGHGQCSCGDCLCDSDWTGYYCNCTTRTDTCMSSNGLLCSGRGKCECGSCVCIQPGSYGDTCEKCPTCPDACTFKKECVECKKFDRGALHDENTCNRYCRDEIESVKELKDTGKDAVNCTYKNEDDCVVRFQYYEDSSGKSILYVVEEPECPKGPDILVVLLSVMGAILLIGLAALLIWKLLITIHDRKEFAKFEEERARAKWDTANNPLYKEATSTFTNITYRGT

| Substance | pIC50 (integrin αvβ3 (human)) | pIC50 [1] | pIC50 (integrin α4β7 [2]) | pIC50 [3] | pIC50 [4] | IC50, ADP PA (ADP-induced platelet aggregation in platelet rich plasma) (integrin αIIbβ3 (human) [5]) [nM] | pIC50 (integrin α4β7 [6]) | pIC50 [7] | pIC50 (integrin αIIbβ3 (human) [8]) |
| --- | --- | --- | --- | --- | --- | --- | --- | --- | --- |
| EC-3 protein, heterodimeric disintegrin from Echis carinatus suchoreki venom (from UniProt P81630 1-67; P81631 1-67) | < 5.00 | 7.55 | 8.22 | < 5.00 | 7.00 | 1000 | 8.30 | 7.60 | 6.30 |
| Echistatin (from UniProt P0C6R5 4-52) | 7.30 |  |  | < 5.00 |  | 130 | < 5.00 | < 5.00 | 7.30 |
